From article PMC6473055, “ALCAM Mediates DC Migration Through Afferent Lymphatics and Promotes Allospecific Immune Reactions” (Frontiers in Immunology, 2019) come the findings set out here.

The target in the assay is T1, murine CD166(1-527)-His (mouse, UniProt Q61490 28-527).
T1 construct: signal peptide in the construct; ALCAM (CD166), mouse, residues 1-527 as printed; also called murine ALCAM; source: bought: Sino Biological, purified
T1 sequence (looked up): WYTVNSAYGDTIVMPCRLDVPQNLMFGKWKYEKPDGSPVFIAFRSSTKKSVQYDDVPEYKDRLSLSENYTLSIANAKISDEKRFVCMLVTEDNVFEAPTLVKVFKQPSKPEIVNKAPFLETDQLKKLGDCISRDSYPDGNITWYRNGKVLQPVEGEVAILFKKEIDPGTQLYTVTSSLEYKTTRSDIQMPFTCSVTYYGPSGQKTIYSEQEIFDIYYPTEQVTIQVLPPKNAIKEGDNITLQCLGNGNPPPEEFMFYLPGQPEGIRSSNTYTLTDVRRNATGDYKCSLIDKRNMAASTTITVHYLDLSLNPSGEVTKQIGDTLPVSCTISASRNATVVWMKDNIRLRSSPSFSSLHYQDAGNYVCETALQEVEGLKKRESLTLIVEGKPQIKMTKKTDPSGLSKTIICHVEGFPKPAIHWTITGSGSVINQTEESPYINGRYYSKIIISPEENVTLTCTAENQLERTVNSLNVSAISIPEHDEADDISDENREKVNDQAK
The assay is described as follows: ELISA; competition ELISA: plates coated overnight at 4°C with murine CD166(1-527)-His (5 μg/ml), blocked with PBS with 2% milk powder; 2 h at RT with a fixed amount of murine CD6-Fc (1 μg/ml) and I/F8-Fc or KSF-Fc in PBS (4 to 0.25 μg/ml); bound CD6-Fc detected with HRP-coupled anti-human IgG. As to conditions: both partners purified. On the technique in general: An ELISA detects its analyte on a solid surface through an enzyme-linked reagent.

B1: murine CD6-Fc (Fc fusion, mouse, UniProt Q61003 17-398, looked up)
chain: GLPSPAPSGQHKNGTIPNMTLDLEERLGIRLVNGSSRCSGSVKVLLESWEPVCAAHWNRAATEAVCKALNCGDSGKVTYLMPPTSELPPGATSGNTSSAGNTTWARAPTERCRGANWQFCKVQDQECSSDRRLVWVTCAENQAVRLVDGSSRCAGRVEMLEHGEWGTVCDDTWDLQDAHVVCKQLKCGWAVKALAGLHFTPGQGPIHRDQVNCSGTEAYLWDCPGRPGDQYCGHKEDAGVVCSEHQSWRLTGGIDSCEGQVEVYFRGVWSTVCDSEWYPSEAKVLCRSLGCGSAVARPRGLPHSLDGRMYYSCKGQEPALSTCSWRFNNSNLCSQSRAARVVCSGSQRHLNLSTSEVPSRVPVTIESSVPVSVKDKDSQGLT
notes: CD6, mouse; source: bought: R&D Systems
Turning to B1, the binding result is given as “binds”.
